Data on seven molecules can be found in patent US20110212843, “STRUCTURE BASED AND COMBINATORIALLY SELECTED OLIGONUCLEOSIDE PHOSPHOROTHIOATE AND PHOSPHORODITHIOATE APTAMER TARGETING AP-1 TRANSCRIPTION FACTORS” (BOARD OF REGENTS, THE UNIVERSITY OF TEXAS SYSTEM, published 2011).

For data set [1], the target named is T1, NF-kB p50 homodimer (UniProt P19838 P19838:1-433). The experiment in a line: resynthesised on bead; text labels it SEQ ID NO 7 but printed sequence differs. The note with it: chain copies: 2 stated. From the text: (§1) Sequencing may also be obtained directly from the bead. Each individually selected bead was washed thoroughly with 8 M urea (pH 7.2) to remove the protein and was directly used for the “one-bead one-PCR” amplification using the 5′ and 3′ end primers. The PCR product was cloned using the TA Cloning procedure (Invitrogen) and sequenced on an ABI Prism 310 Genetic Analyzer (Applied Biosystems). The four thioaptamers listed in Table 3 were obtained from the library. […] The fluorescence intensity of all of the beads viewed under the fluorescence microscope was qualitatively similar to the intensity of the selected bead containing this sequence within the combinatorial library. […] Thus, the split synthesis has been used to create a “one-bead-one sequence” ODN and that PCR can be used to identify an S-ODN bound to a bead (Yang et al., 2002; Gorenstein et al, US & Foreign Patents pending, 1999 a, b, 2001, 2002).
T1 sequence (P19838 1-433, one chain of several): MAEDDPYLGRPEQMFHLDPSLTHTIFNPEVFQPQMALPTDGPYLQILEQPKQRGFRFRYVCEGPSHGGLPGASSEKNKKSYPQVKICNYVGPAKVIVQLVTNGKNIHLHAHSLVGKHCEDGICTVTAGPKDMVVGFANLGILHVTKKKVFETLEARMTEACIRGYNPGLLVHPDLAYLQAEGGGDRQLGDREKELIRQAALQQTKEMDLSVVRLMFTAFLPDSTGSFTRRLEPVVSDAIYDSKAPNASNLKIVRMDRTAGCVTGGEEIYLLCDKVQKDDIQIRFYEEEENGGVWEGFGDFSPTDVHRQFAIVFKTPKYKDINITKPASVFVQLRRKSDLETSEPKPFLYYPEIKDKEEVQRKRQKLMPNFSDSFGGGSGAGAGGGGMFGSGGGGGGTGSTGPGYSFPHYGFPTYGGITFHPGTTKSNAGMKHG

Data set [2] has as its target T1, NF-kB p50 homodimer. The experiment in a line: bead fluorescence, Alexa Fluor 488-p50; PBS 0.1% Tween 20 wash. To be noted: chain copies: 2 stated. From the text:
(§2) The dsDNA thioaptamer library beads were screened for the ability to bind the NF-κB p50/p50 dimer labeled with the Alexa Fluor 488 dye (Molecular Probes). After initial binding of protein, the beads were thoroughly washed with PBS with 0.1% Tween 20 to minimize nonspecific binding. Typically, a few positive beads were intensely stained when viewed by fluorescence, while the majority of the beads remained unstained as (data not shown). With the aid of a micropipette coupled to a micromanipulator, the intensely stained beads were retrieved. Only highly positive beads from several thousand were found using this method. As described below, multicolor flow cytometry and cell/bead sorting was used to automate the selection process to select the tightest binding thioaptamer-protein complexes.
Sequencing may also be obtained directly from the bead. Each individually selected bead was washed thoroughly with 8 M urea (pH 7.2) to remove the protein and was directly used for the “one-bead one-PCR” amplification using the 5′ and 3′ end primers. The PCR product was cloned using the TA Cloning procedure (Invitrogen) and sequenced on an ABI Prism 310 Genetic Analyzer (Applied Biosystems). […] The fluorescence intensity of all of the beads viewed under the fluorescence microscope was qualitatively similar to the intensity of the selected bead containing this sequence within the combinatorial library. […]

Data set [3] has as its target T1, NF-kB p50 homodimer. Nature of the data set: bead fluorescence, Alexa Fluor 488-p50. The note with it: chain copies: 2 stated.
Excerpt: as §2, §1

For data set [4], the target named is T1, NF-kB p50 homodimer. Nature of the data set: sub-nM binding affinity. The note with it: chain copies: 2 stated.
The target of data set [5] is NF-kB p65 (Rel A) homodimer (UniProt Q04206 Q04206:1-551).
NF-kB p65 (Rel A) homodimer, sequence (Q04206 whole entry, one chain of several): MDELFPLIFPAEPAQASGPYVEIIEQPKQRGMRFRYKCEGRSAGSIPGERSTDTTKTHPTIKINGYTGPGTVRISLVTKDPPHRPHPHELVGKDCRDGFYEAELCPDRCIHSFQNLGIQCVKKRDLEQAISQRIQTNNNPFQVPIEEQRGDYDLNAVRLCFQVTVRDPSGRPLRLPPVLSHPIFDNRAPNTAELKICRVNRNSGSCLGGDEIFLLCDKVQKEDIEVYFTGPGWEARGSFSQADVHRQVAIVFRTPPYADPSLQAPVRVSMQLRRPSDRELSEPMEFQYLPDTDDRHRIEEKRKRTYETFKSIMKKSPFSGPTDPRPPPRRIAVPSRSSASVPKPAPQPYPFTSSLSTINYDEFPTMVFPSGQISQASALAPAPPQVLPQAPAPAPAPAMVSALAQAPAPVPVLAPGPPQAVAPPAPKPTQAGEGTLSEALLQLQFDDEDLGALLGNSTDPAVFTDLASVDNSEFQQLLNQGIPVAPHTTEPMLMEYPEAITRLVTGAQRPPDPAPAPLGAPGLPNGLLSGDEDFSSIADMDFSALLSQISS
The target of a further data set is AP-1 c-Jun (Homo sapiens, UniProt P05412 P05412:1-331). The experiment in a line: EMSA; specific binding to recombinant human c-Jun dimers. To be noted: chain copies: 2 stated.
AP-1 c-Jun, sequence (P05412 whole entry, one chain of several): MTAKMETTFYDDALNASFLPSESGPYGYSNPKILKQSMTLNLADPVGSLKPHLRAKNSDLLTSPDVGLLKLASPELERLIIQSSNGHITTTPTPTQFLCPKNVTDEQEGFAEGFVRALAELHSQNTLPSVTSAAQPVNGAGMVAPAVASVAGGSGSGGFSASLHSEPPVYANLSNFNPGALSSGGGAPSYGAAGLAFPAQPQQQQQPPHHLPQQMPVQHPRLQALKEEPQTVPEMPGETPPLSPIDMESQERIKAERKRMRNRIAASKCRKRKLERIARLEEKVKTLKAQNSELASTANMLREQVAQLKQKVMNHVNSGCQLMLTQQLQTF

By Kd is commonly meant the equilibrium constant for the complex coming apart. A lower Kd goes with a tighter complex.

Where only a bound is given, the exact number is not on record here.

B1: Resynthesised bead thioaptamer (dsDNA)
DNA 1: CTGTGAGTCGACTGATGACGGT
DNA 2: ACCGTCATCAGTCGACTCACAG
modifications: PS 3' of lower-case bases, one strand
For B1, the binding result in the data set with NF-kB p50 homodimer [1] was “binds”.

B2: Split-synthesis thioaptamer SEQ 6 (dsDNA)
DNA 1: TGTGCAGGGACTGATGACGGT
DNA 2: ACCGTCATCAGTCCCTGCACA
modifications: PS 3' of lower-case bases in tGTGcAGGGACTgAtGaCGGt, one strand
As for B2, the binding result with NF-kB p50 homodimer [2] is on record as “binds”.

B3: Split-synthesis thioaptamer SEQ 8 (dsDNA)
DNA 1: ATGCACATCTCAGGATGACGGT
DNA 2: ACCGTCATCCTGAGATGTGCAT
modifications: PS 3' of lower-case bases in AtGcAcAtCtCaGgAtGaCGGt, one strand
As to B3, in the data set with NF-kB p50 homodimer [3], the binding result was “binds”.

B4: Split-synthesis thioaptamer SEQ 7 (dsDNA)
DNA 1: CTGTGCATCGAAGTTTGCATTT
DNA 2: AAATGCAAACTTCGATGCACAG
modifications: PS 3' of lower-case bases in CtGTGCatCGAaGTTtGCAtTt, one strand
As for B4, the binding result with NF-kB p50 homodimer [3] was “binds”.

B5: Split-synthesis thioaptamer SEQ 9 (dsDNA)
DNA 1: AGTTGCAGGTCAGGACCCATTT
DNA 2: AAATGGGTCCTGACCTGCAACT
modifications: PS 3' of lower-case bases in AGTTGcAGGtCaGgACCCAtTt, one strand
In the case of B5, the binding result with NF-kB p50 homodimer [3] is given as “binds”.

B6: XBY-6 (dsDNA)
DNA 1: CCAGGAGATTCCAC
DNA 2: GTGGAATCTCCTGG
modifications: phosphorodithioate 3' of T9 and T10 of top strand and 3' of each T printed as S2T in bottom strand (4), 6 in total
Take B6: the Kd with NF-kB p50 homodimer [4] is less than 1 nM; in data set [5], 1.4 nM.

B7: XBY-S2 (dsDNA)
DNA 1: CCAGTGACTCAGTG
DNA 2: CACTGAGTCACTGG
modifications: phosphorodithioates, 6 in total, 3' of T at S2 positions as printed (3 per strand)
In the case of B7, the binding result with AP-1 c-Jun is given as “binds”.
